Test results published in PMC11229372, “New Drosophila promoter-associated architectural protein Mzfp1 interacts with CP190 and is required for housekeeping gene expression and insulator activity”.

What was measured:
MBP-Mzfp1 full-length = target: T1, MBP-Mzfp1 full-length (Drosophila melanogaster, UniProt Q1LZ24 1-586); experiment: EMSA; 0.1 mM ZnSO4, 5 mM MgCl2, poly(dI-dC); PBS pH 8.0, 5 mM MgCl2, 0.1 mM ZnSO4, 1 mM DTT, 0.1% NP-40, 10% glycerol, poly(dI-dC), room temperature, 30 min; 5% native PAGE in 0.5x TBE; conditions: protein: recombinant; tags: N-terminal MBP; label: Cy5; blunt
T1 sequence: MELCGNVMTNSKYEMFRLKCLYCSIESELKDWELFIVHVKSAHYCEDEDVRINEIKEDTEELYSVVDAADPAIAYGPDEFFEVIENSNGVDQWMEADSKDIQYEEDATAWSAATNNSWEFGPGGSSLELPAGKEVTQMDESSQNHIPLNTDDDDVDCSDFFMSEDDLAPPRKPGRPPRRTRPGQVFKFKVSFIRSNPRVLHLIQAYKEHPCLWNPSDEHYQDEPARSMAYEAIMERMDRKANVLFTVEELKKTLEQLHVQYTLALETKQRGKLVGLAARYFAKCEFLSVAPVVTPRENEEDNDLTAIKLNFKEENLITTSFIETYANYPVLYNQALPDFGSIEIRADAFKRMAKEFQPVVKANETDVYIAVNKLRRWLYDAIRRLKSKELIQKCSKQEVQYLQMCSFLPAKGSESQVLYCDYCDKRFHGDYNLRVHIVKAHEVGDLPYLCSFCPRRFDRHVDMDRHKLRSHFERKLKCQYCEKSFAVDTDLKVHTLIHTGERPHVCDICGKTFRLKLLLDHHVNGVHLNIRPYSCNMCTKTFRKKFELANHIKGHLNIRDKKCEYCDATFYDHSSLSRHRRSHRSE

MBP-Mzfp1 MADF1-MADF2 = target: T2, MBP-Mzfp1 MADF1-MADF2 (Drosophila melanogaster, UniProt Q1LZ24 100-434); experiment: EMSA; no specific binding; 0.1 mM ZnSO4, poly(dI-dC); PBS pH 8.0, 5 mM MgCl2, 0.1 mM ZnSO4, 1 mM DTT, 0.1% NP-40, 10% glycerol, poly(dI-dC), room temperature, 30 min; 5% native PAGE in 0.5x TBE; conditions: protein: recombinant; tags: MBP; label: Cy5; blunt
T2 sequence: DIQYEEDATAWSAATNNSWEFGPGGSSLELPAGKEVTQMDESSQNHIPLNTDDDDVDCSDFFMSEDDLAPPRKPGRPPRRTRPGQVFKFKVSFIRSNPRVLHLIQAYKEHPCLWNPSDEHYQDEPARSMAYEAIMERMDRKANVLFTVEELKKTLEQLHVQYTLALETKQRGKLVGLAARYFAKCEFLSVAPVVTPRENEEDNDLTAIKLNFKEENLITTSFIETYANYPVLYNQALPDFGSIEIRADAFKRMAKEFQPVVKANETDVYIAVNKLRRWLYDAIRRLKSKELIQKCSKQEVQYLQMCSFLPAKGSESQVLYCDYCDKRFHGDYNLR

B1: Mzfp1x4 (dsDNA)
DNA 1: GAATTCTAAGCTCTTTGTCGATATCTTGACACACCTATATGATTACTAAGCTCTTTGTCGATATCTTGACACACCTATATGAATTCTAAGCTCTTTGTCGATATCTTGACACACCTATATGATTACTAAGCTCTTTGTCGATATCTTGACACACCTATATGAATTCCTGCAG
DNA 2: CTGCAGGAATTCATATAGGTGTGTCAAGATATCGACAAAGAGCTTAGTAATCATATAGGTGTGTCAAGATATCGACAAAGAGCTTAGAATTCATATAGGTGTGTCAAGATATCGACAAAGAGCTTAGTAATCATATAGGTGTGTCAAGATATCGACAAAGAGCTTAGAATTC
- binding result (MBP-Mzfp1 full-length): binds
- binding result (MBP-Mzfp1 MADF1-MADF2): no binding
